# Data taken from the RNAGym collection of RNA variant scans (doi:10.1073/pnas.2313332121).
# This sample holds only a part of the variants without activity.
# B1: TPR 5TU (parent)
# chain: GGAUCUUCUCGAUCUAACAAAAAAGACAAAUCUGCCACAAAGCUUGAGAGCAUCUUCGGAUGCAGAGGCGGCAGCCUUCGGUGGCGCGAUAGCGCCAACGUUCUCAACUAUGACACGCAAAACGCGUGCUCCGUUGAAUGGAGUUUAUCAUG
# Variants of: B1
# Assay: polymerase ribozyme fitness, log enrichment relative to wild type (log ratio); higher = more active; in vitro selection for triplet polymerase activity
# How it was run: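 Both subunits of a heterodimeric triplet polymerase ribozyme were given their own mutant library, built by PCR and transcribed. Each library was annealed with a biotinylated primer, the partner subunit and triplets, incubated frozen at −7 °C, and its extended constructs gel-excised, captured on streptavidin beads and amplified by RT-PCR, all in one round done in triplicate. Fitness is the logarithm of genotype enrichment relative to wild-type enrichment, with replicates averaged by inverse-variance weighting. That logarithm is base 2, and Illumina-sequenced genotypes needed ≥10 input reads and ≥1 read per output.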
row,Variant,polymerase ribozyme fitness (log ratio)
1,GGAUCUUCUCGAUCUAACAAAAAAGACAAAUCUGCCACAAAGCUUGAGAGGAUCUUCGGAUGCAGAGGCGGCAGCCUUCGGUGGCGCGAUAGCGCCAACGUUCUCAACUAUGACACGCAAAACGUGUGCUCCGUUGAAUGGAGCUUAUCAUG,-4.07
2,GGAUCUUCUCGAUCUAACAAAAAAGACAAAUCUGCCACAAAGCUUGAGAGGAUCUUCGGAUGCAGAGGCGGCUGCCUUCGGUGGCGCGAUAGCGCCAACGUUCUCAACUAUGACACGCAAAACGCGUGCUCCGUUGAAUGGAGUUUAUCAUG,-3.44
3,GGAUCUUCUCGAUCUAACAAAAAAGACAAAUCUGCCACAAAGCUUGAGAGGAUCUUCGGAUGCAGAGGCGGCAGCCUUCGGUGGCGCGAUGGCGCCAACGUUCUCAACUAUGACACGCAAAACGCGUGCUCCGUUGAAUGGAGUUUAUCAUG,≤ -4.2
4,GGAUCUUCUCGAUCUAACAAAAAAGACAAAUCUGCCACAAAGCUUGAGAGGAUCUUCGGAUGCAGAGGCGGCAGCCUUCGGUGGCGCGAUUGCGCCAACGUUCUCAACUAUGACACGCAAAACGCGUGCUCCGUUGAAUGGAGUUUAUCAUG,≤ -4.2
5,GGAUCUUCUCGAUCUAACAAAAAAGACAAAUCUGCCACAAAGCUUGAGAGGAUUUUCGGAUGCAGAGGCGGCAGCCUUCGGUGGCGCGAUAGCGCCAGCGUUCUCAACUAUGACACGCAAAACGCGUGCUCAGUGGAAUGGAGUUUAUCAUG,≤ -4.2
6,GGAUCUUCUCGAUCUAACAAAAAAGACAAAUCUGCCACAAAGCUUGAGAGAAUCUUCGGAUGCAGAGGCGGCAGCCUUCGGUGGCGCGAUAGCGCCAACGUUCUCAACUAUGACACGCAAAACGCGGGCUCCGUUGAAUGGAGUUUAUCAUG,-4.1
7,GGAUCUUCUCGAUCUAACAAAAAAGACAAAUCUGCCACAAAGCUUGAGAGGAUCUUCGGAUGCAGAGGCGGCAGCCUUCGGUGGCGAGAUAGGGCCAACGUUCUAAACUAUGUCACGCAAAACGCGUGCUCCGUUGAAUGGAGUUUAUCAUG,≤ -4.2
8,GGAUCUUCUCGAUCUAACAAAAAAGACAAAUCUGCCACAAAGCUUGAGAGAAUCUUCGGAUGCAGAGGCGGCAGCCUUCGGUGGCGCGAUAGCGCCAACGUACUCAACUAUGACACGCAAAACGCGUGCUCCGUUGAAUGGAGUUUAUCAUG,-1.41
9,GGAUCUUCUCGAUCUAACAAAAAAGACAAAUCUGCCACAAAGCUUGAGAGGAUCUACGGAUGCAGAGGCGGCAGCCUUCGGUGGCGCGAUAGCGCCAACGUUCUCAACUAUGACACGCAAAACGCGUGCUCCGUUGAAUGGAGUUUAUCAUG,-2.67
10,GGAUCUUCUCGAUCUAACAAAAAAGACAAAUCUGCCACAAAGCUUGAGAGGAUCUUCGGAUGUAGAGGCGGCAGCCUUCGGUGGCGCGAUAGCGCCAACGUUCUCAACUAUGACAUGCAAAACGCGUGCUCCGUUGAACGGAGUUUAUCAUG,≤ -4.2
11,GGAUCUUCUCGAUCUAACAAAAAAGACAAAUCUGCCACAAAGCUUGAGAGGAUCUACGGAUGCAGAGGCGGCAGCCUUCGGUGGCGCGUUAGCGCCAACGUUCUCAACUAUGACACGCCAAACGCGUGUUCCGUUGAAUGGAGUUUAUCAUG,≤ -4.2
12,GGAUCUUCUCGAUCUAACAAAAAAGACAAAUCUGCCACAAAGCUUGAGAGGAUCUUCGGAUCCAGAGGCGGCAGCCUUCGGUGGAGCGAUAGCGCCAACGUUCUCAACUAUGACACGCAAAACGCGUGCUCCGUUGAAUGGAAUUUAUCAUG,-1.5
13,GGAUCUUCUCGAUCUAACAAAAAAGACAAAUCUGCCACAAAGCUUGAGAGGAUCUUCGGAUGCAGAGGCGGCAGCCUUCGGUGGCGCGAUAGCGCAAACGUUCUCAACUAUGACACGCAAAACGCGUGCUCCGUUGAAUGGAGUUUCUCAUG,-3.82
14,GGAUCUUCUCGAUCUAACAAAAAAGACAAAUCUGCCACAAAGCUUGAGAGGAUCUUCGGAUGCAGAGGCGGCAGCCUUCGGUGUCGCGAUAGCGCCAACGUUCUCAACUAUGACACGCAAAACGCGUGCUCCGUUGAAUGGAGUUUAUCAUG,-3.11
15,GGAUCUUCUCGAUCUAACAAAAAAGACAAAUCUGCCACAAAGCUUGAGAGGAUCUUCGGAUGCAGAGGCGGCAGCCUUCGGUGGCGCGAUAGCGCCAACGUUCUCGACUAUGACACGCAAAACGCGUGCUCCGUUGAAUGGAGUUUAUCAUG,-3.04
16,GGAUCUUCUCGAUCUAACAAAAAAGACAAAUCUGCCACAAAGCUUGAGAGGAUCUUCGGAUGCAGAGGCGGCAGCCUUGGGUGGCGCGAUAGCGCGAACGUUCUCAACUAUGACACGCAAAACGCGUGCUCCGUUGAAUGGAGUUUAUCAUG,≤ -4.2
17,GGAUCUUCUCGAUCUAACAAAAAAGACAAAUCUGCCACAAAGCUUGAGAGGAUCUUCGGAUGCAGAGGCGGCAGUCUUACGUGGCGAGAUAGCGCCAUCGUUGUCAACUAUGACACGCAAAACGCGUGCUCCGUUGAAUGGAGUGUAUCAUG,≤ -4.2
18,GGAUCUUCUCGAUCUAACAAAAAAGACAAAUCUGCCACAAAGCUUGAGAGGAUCUUCGGAUGCAGAGGCGGCAGCCUUCGGUGGUGCGAUAGCGCCAACGUUCUCAACUAUGACACGCAAAACGCGUGCUCCGUUGAAUGGAGGUUAUCAUG,-1.3
19,GGAUCUUCUCGAUCUAACAAAAAAGACAAAUCUGCCACAAAGCUUGAGAGGAUCUUCGGAUGCAGAGGCGGCAGCCUUCGGUGACGCGAUAGCGGCAACGUUCUCAACUAUGACACGCGAAACGCGUGCUCCGUUGAAUGGAGUUUAUCAUG,-2.85
